This data set concerns the molecule itself. The data set is described as follows: size-exclusion chromatography, self-association (homodimer). As to the method: FIG. 7. Size exclusion chromatography (SEC) traces of purified SP apo-proteins. Proteins were injected as 0.5 mL aliquots onto a Superdex™ 200 Increase 10/300 GL column (Cytiva Life Sciences). The narrow, isolated peaks indicate that the samples contain monodisperse protein. Running buffer was 150 mM NaCl, 10 mM Tris at pH 8. Proteins were purified by Ni-NTA and one round of SEC prior to collecting the data shown.
Proteins were purified by Ni-NTA and size-exclusion chromatography (SEC) (FIG. 7). […] A slightly lower predicted radius of gyration (Rg) value compared to experimental SAXS data is likely due to a dense hydration shell around the highly charged SP proteins (Svergun et al. 1998; Kim et al. 2016). The far ultraviolet (UV) circular dichroism (CD) spectra of three SP proteins that expressed in high yield (≥140 mg/L) show the proteins are highly α-helical with and without the synthetic Chl a derivative, Zn pheophorbide a methyl ester (ZnPPaM). Thermal denaturation curves monitored by the CD signal at 222 nm indicate that all three proteins are highly thermostable in the apo- and holo-states (FIG. 2).
(In general: In gel filtration, larger molecules generally elute earlier.)

Where a chain is given by its changes, count along the chain named.

B1: SP3x (designed binder)
chain: SGSSEELARESAEAAWRLAQASTRATLAMIRGDLKELAEALIELARAVQELARVAKEYGNDELAKTAALLAAHVAMLAIWVLIRAIKEGDDEVRELAKTAIKLASTAAKIVLDALPTAEEVRQITLLAKLAEEAADKKNEDSALAVGIAAIAVIIALWALEAAQKAGIEEAEKGARLLLKLAMDAARKKNPEEALAVLNAALDVSIALQLLQSAKRAGSEETRKLAEEMLRQALERARKKN
notes: Designed homodimer subunit, after TEV cleavage
Turning to B1, the binding result was “binds”.

B2: tj79C2-H121A (designed binder)
chain: SGSGSREDELIARYQILLAELAAERADIAAERTGDPRVRELARELKRLAQEAAEEVKRDPSSSDVNMALLLILLMIELAVRALEAAERTGDPEVRELARELVRLAVEAAEEVQRNPSSSDVWQALHLIMLAIWAAVAALEAAERTGDPEVRELARELVRLAVEAAEEVQRNPSSKEVYMALLLILIAILEAVLSLLRAERSGDPEKREKARERVREAVERAEEVQRDPSGW
notes: as for B1
With B2, the binding result is listed as “binds”.

B3: JA (designed binder)
chain: SGSGSWEEEAADKAIEIAEKVFRLKKSGTSEDEIAEEVAREISEVIRTLKESGSSEEVIALALLMIILGVVMALIANGVSIREQLDISATILYEVAREQGNEEALEAIEEITRLAEEIKEEGGSILAAHILTMAGLLVAALPSEEAAEVAKEIAKAVKAAVEAEKDGKSDEAMLALIRLILAIMAALFNRSKYSLEMVRRIAKEAEQLAEDAREGK
notes: as for B1
Consider B3, for which the binding result is given as “binds”.

B4: D13_H60A (designed binder)
chain: SGSGSEEKEWMLLTAMLIMAIKTLKEMLEEDPNDEEIKKILELLWQISKTQQDDPHNEEQKEWLHLLLIIIMALRLVQEMLKEDPNDEEIEKILELLKQILRTLREDPHNEEQKEWLILLFIIIALLDSVQEMLKEDPNDEEIEKILELLKQILRTLREDPHNEEQKQWLIQLINALILLLFIQEKLKEDPNDEEAEEELERLKEQLRRLRE
notes: as for B1
As to B4, the binding result is on record as “binds”.

B5: D13_H60B (designed binder)
chain: B4 chain with M11Q, A15W, M16L, A20I, L68A, I69A, M72L, E115A, I118L, F121V
notes: as for B1
For B5, the binding result was “binds”.

B6: tj79C2-H132A (designed binder)
chain: SGSGSREDELRARLLILLAELAAETLDIIAERTGDPRVRELARELIRLLQEAAEEVKRDPSSSDVNEALKLIVEAIFMAIFILLFAEQTGDPEVRELARELVRLAVEAAEEVQRNPSSSDVNEALKLIIQAIILAVHALLAAEKTGDPEVRELARELVRLAVEAAEEVQRNPSSKEVDMALLLILIAILEAVLSLLRAQRSGDPEKREKARERVREAVERAEEVQRDPSGW
notes: as for B1
Turning to B6, the binding result is “binds”.

B7: D_3_114_4 (designed binder)
chain: SGSGSSDEEFKFLATMAKMAITAAERAAGTDPELQEMVALIKKELEQAERTFRNGDKSEAQRQLWFVWVAALAVAAVALAANAAGTDPELQEMVDRILKQLKEAIRTFQNGDQEEAETQLRFVLMAAAAVAVVALARLWAGTDPELQEMVKQILEELKQAIETFARGDKEKALTQLLFVLWAAHAVLWIAIAANLAGTDPRLQQQVKEILEKLKEAIETFQKGDEEQAFRQLAEVLAEAVLVALRARKTN
notes: as for B1
For B7, the binding result is “binds”.

B8: tj79C2-H69A (designed binder)
chain: SGSGSREDELQARLQLLAAELAAEEADIAAERTGDPRVRELARELKRLAQEAAEEVKRDPSSSDVNAALVLITHAIMLAVEALKAAERTGDPEVRELARELVRLAVEAAEEVQRNPSSSDVNKALFLIMMAIITAVTALEAAERTGDPEVRELARELVRLAVEAAEEVQRNPSSKEVDMALLLILIAILEAVLSLLRAERSGDPEKREKARERVREAVERAEEVQRDPSGW
notes: as for B1
On to B8, for which the binding result is “binds”.

B9: tj79C2-H69B (designed binder)
chain: SGSGSREDELHARYLILSAELAAERADIAAERTGDPRVRELARELKRLAQEAAEEVKRDPSSSDVNKALLLITHAILIAVAALEAAERTGDPEVRELARELVRLAVEAAEEVQRNPSSSDVNRALFLIMMAIMMAVKALEAAERTGDPEVRELARELVRLAVEAAEEVQRNPSSKEVDMALLLILIAILEAVLSLLRAERSGDPEKREKARERVREAVERAEEVQRDPSGW
notes: as for B1
Consider B9, for which the binding result is on record as “binds”.

B10: tj79C2-H125A (designed binder)
chain: SGSGSREDELWARYTLLLAELAAERADIAAERTGDPRVRELARELKRLAQEAAEEVKRDPSSSDVYLALILIVMAIYMAVLALEAAERTGDPEVRELARELVRLAVEAAEEVQRNPSSSDVNKALLLIVHAIMAAVAALEAAERTGDPEVRELARELVRLAVEAAEEVQRNPSSKEVDMALLLIQIAILEAVLSLLRAERSGDPEKREKARERVREAVERAEEVQRDPSGW
notes: as for B1
Regarding B10, the binding result is listed as “binds”.

B11: D_3_114_3 (designed binder)
chain: SGSGSSDELFKWLATEAKMAITAAERLAGTDPELQEMVALIKKELEQAERTFRNGDKSEAMRQLLFVLMAANAVAAVAAAANMAGTDPELQEMVDRILKQLKEAIRTFQNGDQEEAMTQLAFVLLAAAAVFVVAWALILAGTDPELQEMVKQILEELKQAIETFARGDKEKALTQLLFVLWAAHAVAWIALAALLAGTDPRLLQQVKEILEKLKEAIETFQKGDEEQAFRQLAEVLAEAILVAIRAAKTN
notes: as for B1
As to B11, the binding result is “binds”.

B12: D13_H11A (designed binder)
chain: SGSGSEEKEWQAMTLHLIFAIKILKEMLEEDPNDEEIKKILELLWQISKTQQDDPHNEEQKEWLMLLLLIIMALRLVQEMLKEDPNDEEIEKILELLKQILRTLREDPHNEEQKEWLILLLIIILLLDSVQEMLKEDPNDEEIEKILELLKQILRTLREDPHNEEQKQWLIQLINALILLLFIQEKLKEDPNDEEAEEELERLKEQLRRLRE
notes: as for B1
For B12, the binding result is “binds”.

B13: D13_H11B (designed binder)
chain: B12 chain with L15A, F19Y, M65I, L69I, M72L, I118S, L121F, L125A
notes: as for B1
As for B13, the binding result is on record as “binds”.

B14: D13_H11C (designed binder)
chain: B12 chain with Q11A, A12I, L15A, F19Y, I23V, L69G, M72L, I118A, L121V
notes: as for B1
In the case of B14, the binding result is “binds”.

B15: D_3_114_2 (designed binder)
chain: SGSGSSDEEFKWLATWAKMAITAAERAAGTDPELQEMVALIKKELEQAERTFRNGDKSEAWRQLVFVAIAAAAVLAVALAANAAGTDPELQEMVDRILKQLKEAIRTFQNGDQEEAETQLFFVLLAAAAVAVVALALIWAGTDPELQEMVKQILEELKQAIETFARGDKEKALTQLLFVLWAAHAVLWIAIAANTAGTDPRLQQQVKEILEKLKEAIETFQKGDEEQAFRQLAEVLAEAVLVALRAMKTN
notes: as for B1
B15: the binding result is “binds”.

B16: SP3 (designed binder)
chain: SGSSEELARESAEAAWRLAQAGTRLMLAWIRGDLKEIAEALIELARAVQELARVAKEYGNDELAKTAALLAAHVAMLAILVLIRAIKEGDDEVRELAKTAIKLASTAAKIVLDALPTAEEVRQITLLAKLAEEAADKKNEDSALAVGIAAAAVLLALLALEAAQKAGIEEAEKGARLLLKLAMDAARKKNPEEALAVFNAALDVSIALKLLQSAKRAGSEETRKLAEEMLRQALERARK
notes: as for B1
Turning to B16, the binding result is recorded as “binds”.

B17: JIa (designed binder)
chain: B16 chain with L25A, M26A, W29A, I37L, M76L, L155A, F198L, K209R
notes: as for B1
Regarding B17, the binding result is “binds”.

B18: JIe (designed binder)
chain: B16 chain with G22A, L25I, W29V, L69F, M76L, L80I, A151M, L155I, K209R
notes: as for B1
As to B18, the binding result is reported as “binds”.

B19: JId (designed binder)
chain: B16 chain with G22A, M26V, W29V, L69F, M76L, L80I, F198L, K209R
notes: as for B1
In the case of B19, the binding result is on record as “binds”.

B20: JIc (designed binder)
chain: B16 chain with G22A, M26V, W29L, I37V, L69W, L80Y, A151I, L155I, F198L, K209R
notes: as for B1
For B20, the binding result was “binds”.

B21: tj79C2-H121B (designed binder)
chain: SGSGSREDELLARLLLLLAELAAERADIAAERTGDPRVRELARELKRLAQEAAEEVKRDPSSSDVLMALLLIIMAIEAAVEALEAAERTGDPEVRELARELVRLAVEAAEEVQRNPSSSDVWWALHLILFAIQLAVRALEAAERTGDPEVRELARELVRLAVEAAEEVQRNPSSKEVDMALLLILIAILEAVLSLLRAERSGDPEKREKARERVREAVERAEEVQRDPSGW
notes: as for B1
As to B21, the binding result is “binds”.

B22: tj79C2-H121C (designed binder)
chain: B21 chain with L16I, A68L, I73V, M74L, E77Q, W122F, W123M, R137Q, V168L, D178Q
notes: as for B1
For the protein B22, the binding result was “binds”.

B23: D_3_114_5 (designed binder)
chain: SGSGSSDFEFKMLATWAKMAITAAERAAGTDPELQEMVALIKKELEQAERTFRNGDKSEAMRQLEFVLTAANAVLAVALAANMAGTDPELQEMVDRILKQLKEAIRTFQNGDQEEAEDQLLFVLAAATAVAVVAWAKILAGTDPELQEMVKQILEELKQAIETWARGDKEKAATQLLFVMWAAHAVAAIALAANVAGTDPRLQQQVKEILEKLKEAIETFQKGDEEQAFRQLAEVLAEAMLVAIRALLTN
notes: as for B1
As for B23, the binding result is “binds”.
